Assays:
[1] = molecular target: T1, His-tagged KCNQ1 C-terminal fragment Q1C1 (349-480) (human, UniProt P51787 349-480); assay: SPR
T1 sequence (looked up): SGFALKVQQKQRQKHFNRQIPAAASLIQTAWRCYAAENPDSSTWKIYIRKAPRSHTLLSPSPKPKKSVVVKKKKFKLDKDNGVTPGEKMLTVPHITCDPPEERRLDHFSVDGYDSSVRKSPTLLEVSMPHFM

[2] = molecular target: T2, His-tagged KCNQ1 full-length C-terminus (Q1Cf, 349-676) (human, UniProt P51787 349-676); assay: SPR
T2 sequence (looked up): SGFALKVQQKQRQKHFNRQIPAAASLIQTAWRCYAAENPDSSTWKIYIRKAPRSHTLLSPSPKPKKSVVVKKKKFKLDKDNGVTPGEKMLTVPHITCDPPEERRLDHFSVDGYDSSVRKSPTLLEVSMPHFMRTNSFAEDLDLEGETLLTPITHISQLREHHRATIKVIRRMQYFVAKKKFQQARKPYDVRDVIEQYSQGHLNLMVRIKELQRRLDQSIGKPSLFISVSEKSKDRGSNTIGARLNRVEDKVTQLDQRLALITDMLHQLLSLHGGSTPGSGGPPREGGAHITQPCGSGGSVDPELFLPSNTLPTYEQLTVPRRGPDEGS

Kd [1]: 4.6 ± 1.4 µM | Kd [2]: 3.2 ± 0.7 µM
B1: His-tagged KCNE1 C-terminus (E1C) (domain or fragment)
chain: not shown
